From patent publication EP0251446B1, “Non-human Carbonyl hydrolase mutants, DNA sequences and vectors encoding same and hosts transformed with said vectors” (GENENCOR INTERNATIONAL, INC., priority 1986, dated 1988) come the findings set out here.

Numbering of substitutions follows the chain as printed. Numbers in names are those of the source.

Holding throughout (assay type): biochemical, B. amyloliquefaciens
Substrate in data set [1]: C[C@H](NC(=O)CCC(=O)O)C(=O)N[C@@H](C)C(=O)N1CCC[C@H]1C(=O)NCC(=O)Nc1ccc([N+](=O)[O-])cc1
Briefly: Kinetics of hydrolysis of succinyl-Ala-Ala-Pro-X-p-nitroanilide substrates (progress curve analysis). Particulars: other: Table VIII; substrate succinyl-L-AlaL-AlaL-ProL-[X]-p-nitroanilide, X = label (P1 amino acid). The text has this: (§1) A change in substrate specificity is defined as a difference between the kcat/Km ratio of the precursor carbonyl hydrolase and that of the hydrolase mutant. The kcat/Km ratio is a measure of catalytic efficienty. Carbonyl hydrolase mutants with increased or diminished kcat/Km ratios are described in the examples. Generally, the objective will be to secure a mutant having a greater (numerically large) kcat/Km ratio for a given substrate, thereby enabling the use of the enzyme to more efficiently act on a target substrate. A substantial change in kcat/Km ratio is preferably at least 2-fold increase or decrease. However, smaller increases or decreases in the ratio (e.g., at least 1.5-fold) are also considered substantial. An increase in kcat/Km ratio for one substrate may be accompanied by a reduction in kcat/Km ratio for another substrate. […] Km and kcat are measured in accord with known procedures, as described in EPO Publication No. 0130756 or as described herein.
(§2) Wild-type subtilisin was purified from B. subtilis culture supernatants expressing the B. amyloliquefaciens subtilisin gene (Wells, J.A., et al. (1983) Nucleic Acids Res. 11, 7911-7925) as previously described (Estell, D.A., et al. (1985) J. Biol. Chem. 260, 6518-6521). Details of the synthesis of tetrapeptide substrates having the form succinyl-L-AlaL-AlaL-ProL-[X]-p-nitroanilide (where X is the P1 amino acid) are described by DelMar, E.G., et al. (1979) Anal. Biochem. 99, 316-320. Kinetic parameters, Km(M) and kcat-(s-^1) were measured using a modified progress curve analysis (Estell, D.A., et al. (1985) J. Biol. Chem. 260, 6518-6521). Briefly, plots of rate versus product concentration were fit to the differential form of the rate equation using a non-linear regression algorithm. Errors in kcat and Km for all values reported are less than five percent. The various substrates in Table VIII are ranged in order of decreasing hydrophobicity. Nozaki, Y. (1971), J. Biol. Chem. 246, 2211-2217; Tanford C. (1978) Science 200, 1012).

Substrate in data set [2]: C[C@H](NC(=O)CCC(=O)O)C(=O)N[C@@H](C)C(=O)N1CCC[C@H]1C(=O)N[C@@H](CCC(=O)O)C(=O)Nc1ccc([N+](=O)[O-])cc1
The description is as above.
Text: as §1, §2

Substrate in data set [3]: CSCC[C@H](NC(=O)[C@@H]1CCCN1C(=O)[C@H](C)NC(=O)[C@H](C)NC(=O)CCC(=O)O)C(=O)Nc1ccc([N+](=O)[O-])cc1
Described as above. Particulars: other: Table XIV, 156 Glu / 166 Gly(wt); value in parentheses; synthetic substrate with label as P-1 amino acid.
Text: as §1, §2

Substrate in data set [4]: C[C@H](NC(=O)[C@H](Cc1ccccc1)NC(=O)CCC(=O)O)C(=O)N1CCC[C@H]1C(=O)N[C@@H](Cc1ccccc1)C(=O)Nc1ccc([N+](=O)[O-])cc1
The data set is described as above. Particulars: other: Table XI, WT.
Text: as §1, §2

Substrate in data set [5]: C[C@H](NC(=O)CCC(=O)O)C(=O)N[C@@H](C)C(=O)N1CCC[C@H]1C(=O)N[C@@H](Cc1c[nH]cn1)C(=O)Nc1ccc([N+](=O)[O-])cc1
The data set is described as above. Particulars: other: Table VIII; substrate succinyl-L-AlaL-AlaL-ProL-[X]-p-nitroanilide, X = label (P1 amino acid).
Text: as §1, §2

Substrate in data set [6]: C[C@H](NC(=O)[C@@H]1CCCN1C(=O)[C@H](C)NC(=O)[C@H](Cc1ccccc1)NC(=O)CCC(=O)O)C(=O)Nc1ccc([N+](=O)[O-])cc1
Described as above. Particulars: other: Table XI, WT.
Text: as §1, §2

Substrate in data set [7]: C[C@H](NC(=O)CCC(=O)O)C(=O)N[C@@H](C)C(=O)N1CCC[C@H]1C(=O)N[C@@H](CCCCN)C(=O)Nc1ccc([N+](=O)[O-])cc1
The data set is described as above. The conditions noted are these: other: Table XIV, 156 Glu / 166 Gly(wt); value in parentheses; synthetic substrate with label as P-1 amino acid.
Text: as §1, §2

Substrate in data set [8]: C[C@H](NC(=O)CCC(=O)O)C(=O)N[C@@H](C)C(=O)N1CCC[C@H]1C(=O)N[C@@H](Cc1ccc(O)cc1)C(=O)Nc1ccc([N+](=O)[O-])cc1
The data set is described as above. The conditions noted are these: other: Table VIII; substrate succinyl-L-AlaL-AlaL-ProL-[X]-p-nitroanilide, X = label (P1 amino acid).
Text: as §1, §2

Substrate in data set [9]: CC(C)C[C@H](NC(=O)[C@@H]1CCCN1C(=O)[C@H](C)NC(=O)[C@H](C)NC(=O)CCC(=O)O)C(=O)Nc1ccc([N+](=O)[O-])cc1
The description is as above. Particulars: other: Table VIII; substrate succinyl-L-AlaL-AlaL-ProL-[X]-p-nitroanilide, X = label (P1 amino acid).
Text: as §1, §2

Substrate in data set [10]: C[C@H](NC(=O)CCC(=O)O)C(=O)N[C@@H](C)C(=O)N1CCC[C@H]1C(=O)N[C@@H](Cc1ccccc1)C(=O)Nc1ccc([N+](=O)[O-])cc1
The description is as above. The conditions noted are these: other: Table V; substrate not given; Km in M.
Text: as §1, §2

Substrate in data set [11]: C[C@H](NC(=O)CCC(=O)O)C(=O)N[C@@H](C)C(=O)N1CCC[C@H]1C(=O)N[C@@H](C)C(=O)Nc1ccc([N+](=O)[O-])cc1
Described as above.
Text: as §1, §2

Substrate in data set [12]: C[C@H](NC(=O)CCC(=O)O)C(=O)N[C@@H](C)C(=O)N1CCC[C@H]1C(=O)N[C@@H](CCC(N)=O)C(=O)Nc1ccc([N+](=O)[O-])cc1
The data set is described as above. Particulars: other: Table XIV, 156 Glu / 166 Gly(wt); value in parentheses; synthetic substrate with label as P-1 amino acid.
Text: as §1, §2

Substrate in data set [13]: C[C@H](NC(=O)CCC(=O)O)C(=O)N[C@@H](C)C(=O)N1CCC[C@H]1C(=O)N[C@@H](CO)C(=O)Nc1ccc([N+](=O)[O-])cc1
Described as above. Particulars: other: Table VIII; substrate succinyl-L-AlaL-AlaL-ProL-[X]-p-nitroanilide, X = label (P1 amino acid).
Text: as §1, §2

Substrate in data set [14]: C[C@H](NC(=O)CCC(=O)O)C(=O)N[C@@H](C)C(=O)N1CCC[C@H]1C(=O)N[C@@H](CCC(=O)O)C(=O)Nc1ccc([N+](=O)[O-])cc1
Briefly: Kinetics of p-nitroanilide substrate hydrolysis, M166. Particulars: other: Table XIV, 156 Glu / 166 Met; value in parentheses; synthetic substrate with label as P-1 amino acid.
Text: as §2
(§3) To probe the change in substrate specificity caused by steric alterations in the S-1 subsite, position 166 mutants were kinetically analyzed versus P1 substrates of increasing size (i.e., Ala, Met, Phe and Tyr). Ratios of kcat/Km are presented in log form in Figure 15 to allow direct comparisons of transition-state binding energies between various enzyme-substrate pairs.
(§4) To isolate the contribution of electrostatics to substrate specificity from other chemical binding forces, these various single and double mutants were analyzed for their ability to bind and cleave synthetic substrates containing Glu, Gln, Met and Lys as the P-1 substrate amino acid. This permitted comparisons between side-chains that were more sterically similar but differed in charge (e.g., Glu versus Gln, Lys versus Met). Similarly, mutant enzymes were assayed against homologous P-1 substrates that were most sterically similar but differed in charge (Table XIV).
(§5) The kcat/Km ratios shown are the second order rate constants for the conversion of substrate to product, and represent the catalytic efficiency of the enzyme. These ratios are presented in logarithmic form to scale the data, and because log kcat/Km is proportional to the lowering of transition-state activation energy (△GT). Mutations at position 156 and 166 produce changes in catalytic efficiency toward Glu, Gln, Met and Lys P-1 substrates of 3100, 60, 200 and 20 fold, respectively.

Substrate in data set [15]: CSCC[C@H](NC(=O)[C@@H]1CCCN1C(=O)[C@H](C)NC(=O)[C@H](C)NC(=O)CCC(=O)O)C(=O)Nc1ccc([N+](=O)[O-])cc1
Described as above. Particulars: other: Table XIV, 156 Glu / 166 Met; value in parentheses; synthetic substrate with label as P-1 amino acid.
Text: as §2, §3, §4, §5

Substrate in data set [16]: C[C@H](NC(=O)CCC(=O)O)C(=O)N[C@@H](C)C(=O)N1CCC[C@H]1C(=O)N[C@@H](CCCCN)C(=O)Nc1ccc([N+](=O)[O-])cc1
Described as above. The conditions noted are these: other: Table XIV, 156 Glu / 166 Met; value in parentheses; synthetic substrate with label as P-1 amino acid.
Text: as §2, §3, §4, §5

Substrate in data set [17]: C[C@H](NC(=O)CCC(=O)O)C(=O)N[C@@H](C)C(=O)N1CCC[C@H]1C(=O)N[C@@H](CCC(N)=O)C(=O)Nc1ccc([N+](=O)[O-])cc1
The data set is described as above. The conditions noted are these: other: Table XIV, 156 Glu / 166 Met; value in parentheses; synthetic substrate with label as P-1 amino acid.
Text: as §2, §3, §4, §5

Setting [18] is: other: Table XIII, Glu156/Gly166 (WT), synthetic substrate with label as P-1 residue.
Setting [19] is: other: Table VIII, substrate succinyl-L-AlaL-AlaL-ProL-[X]-p-nitroanilide, X = label (P1 amino acid).

B1: B. amyloliquefaciens subtilisin, wild type (WT, Gly166) (Bacillus amyloliquefaciens) (protein)
chain: AQSVPYGVSQIKAPALHSQGYTGSNVKVAVIDSGIDSSHPDLKVAGGASMVPSETNPFQDNNSHGTHVAGTVAALNNSIGVLGVAPSASLYAVKVLGADGSGQYSWIINGIEWAIANNMDVINMSLGGPSGSAALKAAVDKAVASGVVVVAAAGNEGTSGSSSTVGYPGKYPSVIAVGAVDSSNQRASFSSVGPELDVMAPGVSIQSTLPGNKYGAYNGTSMASPHVAGAAALILSKHPNWTNTQVRSSLENTTTKLGDSFYYGKGLINVQAAAQ
notes: at various amino acid residues within the mature form of the subtilisin molecule; made in house; host or cells: Bacillus subtilis (secreted, culture supernatant)
On to B1, for which the kcat in [1] came to 0.003 S^-1; in data set [2] (setting [18]) it was 0.54 s-^1; in data set [3], 13 S^-1; in data set [4], 26.0 s-^1; in [5], 7.9 S^-1; in data set [6], 0.32 s-^1. The kcat in data set [8] worked out at 28 S^-1; in [9] it was 24 S^-1; in data set [10] it was 50.0 s-^1; in data set [11] (setting [19]), 1.9 S^-1; in data set [11] (other: Table XI, WT) it was 3.2 s-^1; in data set [12] it was 3.2 S^-1. Also, in data set [13], the kcat amounted to 2.8 S^-1. Moreover, the specificity constant (kcat/Km) in data set [1] is 21 s-^1M-1; in [2] (setting [18]) it was 16 M⁻¹ s⁻¹; in data set [3] it was 120,000 s-^1M-1; in data set [4], 150000 M⁻¹ s⁻¹; in [5], 13,000 s-^1M-1; in data set [6], 4400 M⁻¹ s⁻¹. Besides, the kcat/Km in [8] was 1,100,000 s-^1M-1; in [9], 75,000 s-^1M-1; in data set [10], 360000 M⁻¹ s⁻¹; in [11] (setting [19]), 11,000 s-^1M-1; in data set [11] (other: Table XI, WT) it was 14000 M⁻¹ s⁻¹; in data set [12], 7,100 s-^1M-1. Further, in data set [13], the kcat/Km is on record as 4,200 s-^1M-1. For the same protein, the Km was determined as 34000 µM in [2] (setting [18]); 33900 µM in data set [2] (other: Table XIV, 156 Glu / 166 Gly(wt), value in parentheses, synthetic substrate with label as P-1 amino acid); 107 µM in [3]; 180 µM in data set [4]; 73 µM in data set [6]; 741 µM in [7]. Moreover, the Michaelis-Menten constant (Km) in data set [10] worked out at 140 µM; in data set [11] (other: Table XI, WT) it was 230 µM; in data set [12], 447 µM.

B2: B. amyloliquefaciens subtilisin variant Glu156/M166 (Gly166 to Met) (Bacillus amyloliquefaciens; G273M) (protein)
chain: B1 chain with G166M
notes: at various amino acid residues within the mature form of the subtilisin molecule; made in house; host or cells: Bacillus subtilis BG2036
Take B2: the Km in data set [14] was 5010 µM; in [15], 14.8 µM; in [16] it was 129 µM; in data set [17], 646 µM.

In general, kcat/Km refers to the turnover number divided by the Michaelis constant. As usually defined, the Km is the substrate concentration at which the rate is half of its maximum.
